According to FireProtDB (doi:10.1016/j.jmb.2003.11.050):
Where “and” joins values, the source holds several entries; their conditions need not be identical. Equal values may be shown once.

B1: Cold shock protein CspB, P41016 (parent)
chain: MQRGKVKWFNNEKGYGFIEVEGGSDVFVHFTAIQGEGFKTLEEGQEVSFEIVQGNRGPQAANVVKL

Variants of: B1
Conditions: Bacillus caldolyticus; pH 7; 25 °C; GdnHCl; Fluorescence; sodium cacodylate 100 mM; reversible: yes; structure 1C9O; whole UniProt chain shown

Variant | ddG of mutation (higher = less stable) | denaturant m value | denaturant midpoint (higher = more stable) | unfolding free energy
E50W S24C | 0.8 kcal/mol and 0.3 kcal/mol | 1.64 kcal/mol/M and 1.43 kcal/mol/M | 2.09 M and 2.05 M | 3.44 kcal/mol and 2.92 kcal/mol
E50W L66C | 1.7 kcal/mol and 4.4 kcal/mol | 1.97 kcal/mol/M and 1.54 kcal/mol/M | 1.64 M and 1.68 M | 3.23 kcal/mol and 2.58 kcal/mol
F38W | -0.7 kcal/mol | 1.75 kcal/mol/M | 2.18 M | 3.8 kcal/mol
F38W L66C |  | 1.97 kcal/mol/M and 1.9 kcal/mol/M and 1.54 kcal/mol/M | 2.14 M and 2.11 M and 1.83 M | 4.21 kcal/mol and 4.02 kcal/mol and 2.82 kcal/mol
E50W | -0.3 kcal/mol | 1.69 kcal/mol/M | 2.18 M | 3.7 kcal/mol
